# Test results published in paper PMC2978343.
# Key:
# Ecl18kI R174A mutant [1] = biological target: Ecl18kI R174A mutant (UniProt O87963)
# Ecl18kI R174A mutant [2] = biological target: Ecl18kI R174A mutant (UniProt O87963); experiment: atomic force microscopy
# [3] = biological target: Ecl18kI restriction endonuclease, wild type (UniProt O87963); experiment: tethered particle motion
Substance,"phage lambda DNA cleavage activity, % of wt (Ecl18kI R174A mutant [1]) [%]",stoichiometry N (Ecl18kI R174A mutant [2]),"k unloop (loop breakage rate constant, tetramer to two DNA-bound dimers) [3] [s⁻¹]"
Ecl18kI R174A mutant (from UniProt O87963 1-305) (enzyme),0.2,2,–
"Ecl18kI restriction endonuclease, wild type (from UniProt O87963 1-305) (enzyme)",–,–,0.86
